Article PMC11503464, “Copper-61 is an advantageous alternative to gallium-68 for PET imaging of somatostatin receptor-expressing tumors: a head-to-head comparative preclinical study” (Frontiers in Nuclear Medicine, 2024)

Columns and labels:
[1] = Stability of labeling solutions at room temperature by radio-HPLC; assay type: physicochemical; settings: labeling solution stored at room temperature
Protocol: An aliquot of DOTA-TOC or NODAGA-TOC (3–6 nmol, 1 mg/ml in TraceSelect water) was diluted in 0.25–0.30 ml ammonium acetate (0.5 M, pH 8), followed by the addition of [^61Cu]CuCl2 (30–150 MBq). The reaction mixture was incubated for 15 min at 95°C (DOTA-TOC) or at room temperature (NODAGA-TOC). The pH of the reaction mixture was between 5 and 6. Quality control was performed on a Shimadzu 2020 HPLC system connected to a Berthold radio detector (Flow Star 513).

[2] = assay type: physicochemical; settings: pH 7.4
Protocol: Briefly, the radiotracer (10 µl, 1 µM) was added to 1 ml of a 1:1 pre-saturated mixture of 1-octanol and phosphate-buffered saline (PBS pH 7.4). The solution was vortexed for 30 min and then centrifuged at 3,000 rpm to achieve phase separation. Aliquots of 0.1 ml from each phase were collected and measured in a γ-counter. The distribution coefficient was calculated as the average of the logarithmic values (n = 3) of the ratio between the radioactivity in the organic and PBS phases. [^68Ga]Ga-DOTA-TOC was used as a reference.

HEK-SST2 cells [3] = experiment: Cellular uptake and distribution on intact HEK-SST2 cells; assay type: cell-based, human; settings: specific uptake, after 4 h at 37°C
Protocol: At the defined time points, the medium was removed, and the cells were washed twice with ice-cold PBS. The cells were then treated twice for 5 min with ice-cold glycine solution (0.05 M, pH 2.8) to detach the cell membrane-bound fraction (acid released). Afterward, the cells containing the internalized fraction were detached using NaOH 1 M at 37°C and collected for measurement. [^68Ga]Ga-DOTA-TOC was evaluated as a reference.

HEK-SST2 cells [4] = experiment: Efflux from HEK-SST2 cells; assay type: cell-based, human
Protocol: The efflux was studied after 1 h incubation of the cells with the radiotracer at 37°C and the removal of the unbound fraction and the cell membrane-bound fraction, as described above (acid-wash). The cells were then incubated with fresh medium at 37°C either alone or with a competitor (1,000-fold excess of DOTA-TOC, 2.5 µM/well) for 10, 20, 30, 45, 60, 90, 120, 150, 180, and 240 min. At each time point, the efflux (or retention) was measured after the removal of the medium without or with the competitor and replacement with fresh pre-warmed (37°C) medium alone or with the competitor. At the end of the experiment, the cells were detached using 1 M NaOH at 37°C and collected to determine the remaining cell-associated radiotracer.

HEK-SST2 xenografts [5] = experiment: PET/CT in vivo specificity (DOTA-TOC pre-injection) in HEK-SST2 xenografts; parameters: species or system mice; settings: PET/CT 1 h p.i.
Protocol: The mice were anesthetized with 1.5% isoflurane and dynamic PET scans were acquired from 0 to 1 h post-injection (p.i.). The mice were euthanized by CO2 at 4 h p.i., their bladders were mechanically emptied, and static PET scans were acquired for 30 min. […] The PET images were acquired in list mode using a small-animal PET scanner (β-CUBE, Molecubes, Ghent, Belgium) with a spatial resolution of 0.85 mm and an axial field-of-view of 13 cm. All PET scans were decay corrected and reconstructed into a 192 × 192 × 384 matrix by an ordered subsets maximization expectation (OSEM) algorithm using 30 iterations, a voxel size of 400 µm × 400 µm × 400 µm, and15 min per frame. Computed tomography (CT) data was used to apply attenuation correction on the PET data. The CT was imaged supine, headfirst, using the nanoSPECT/CT™ scanner (Bioscan Inc.). Topograms and helical CT scans of the whole mouse were first acquired using the following parameters: x-ray tube current: 177 µA, x-ray tube voltage 45 kVp, 90 s, and 180 frames per rotation, pitch 1. […] The specificity of the ^61Cu-labeled tracers was assessed in HEK-SST2 xenografts by administering DOTA-TOC (100 µl/200 nmol) 2–5 min pre-injection, followed by the injection of the radiotracer (100 µl/200 pmol/4 MBq). […]

HEK-SST2 xenografts [6] = settings: female, athymic nude-Foxn1^nu/Foxn1^+, mouse, in vivo, 200 pmol, 1 h

Q: For `C[C@@H](O)[C@@H]1NC(=O)[C@H](CCCCN)NC(=O)[C@@H](Cc2c[nH]c3ccccc23)NC(=O)[C@H](Cc2ccc(O)cc2)NC(=O)[C@@H](NC(=O)[C@@H](Cc2ccccc2)NC(=O)CN2CCN(CC(=O)O)CCN(CC(=O)O)CCN(CC(=O)O)CC2)CSSC[C@@H](C(=O)N[C@H](CO)[C@@H](C)O)NC1=O` [[^61Cu]Cu-DOTA-TOC] [metal not drawn], which “Radiochemical purity (%) 2 h” value ([1]; 2 h after end of synthesis) is on record?
A: Its value is 96 ± 1%.

Q: And the “Radiochemical purity (%) 4 h” value ([1]; 4 h after end of synthesis)?
A: Its value is 95 ± 1%.

Q: What about the “log D(O/PBS pH 7.4)” value [2] of the same molecule?
A: The value was −2.81 ± 0.29.

Q: What about the “Cellular uptake (surface bound + internalized)” value (HEK-SST2 cells [3]) of the same molecule?
A: The value was 78.3 ± 1.3%.

Q: And the “Efflux plateau in the absence of a competitor” value (HEK-SST2 cells [4]; after 2 h, 37°C, no further increase at 4 h)?
A: Its value is “approximately 40%”.

Q: And the Efflux with competitor (HEK-SST2 cells [4]; after 4 h at 37°C, DOTA-TOC (competitor) added to the medium)?
A: The Efflux with competitor was 80%.

Q: What about the “Abdominal uptake (liver and intestine) after high excess DOTA-TOC pre-injection” value (HEK-SST2 xenografts [5]) of the same molecule?
A: Its value is “not suppressed”.

Q: What about the Heart uptake (HEK-SST2 xenografts [6]) of the same molecule?
A: The Heart uptake was 0.63 ± 0.07 %IA/g.

Q: What about the Intestine uptake (HEK-SST2 xenografts [6]) of the same molecule?
A: Its Intestine uptake is 2.94 ± 0.15 %IA/g.

Q: What about the Liver uptake (HEK-SST2 xenografts [6]) of the same molecule?
A: Its Liver uptake is 3.59 ± 0.49 %IA/g.
